Patent publication US20200399712A1, “COMPOSITIONS AND METHODS FOR THE DIAGNOSIS AND DETECTION OF TUMORS AND CANCER PROGNOSIS” (priority 2018, published 2020)
Marks after values point to notes of the source that are not given here.

Legend:
HPV-16 genome = assay: qPCR sensitivity against HPV-16 copy number (known-copy HPV-16 DNA among 10 ng normal human DNA); conditions: for reaction under 30 copies of HPV-16 genome: among 10 ng normal DNA, triplicate qPCR; for number of reactions against 10 HPV-16 copies / number of reactions under 30 HPV-16 copies: samples tested 3 times, 10 ng DNA from healthy individual
Excerpt: All samples were run in triplicates.
To seek the most promising primer-probe set in the viewpoint of sensitivity, Applicants evaluated the sensitivity analysis for these candidate primer-probe sets. […] Therefore, the sensitivity of E6 (FIG. 3A) and E7 (FIG. 3B) was also 30 copies. […] The candidate primer-probe sets were the “Min-4” (FIG. 3C), “Min-5” (FIG. 3D), “Min-6” (FIG. 3E), “Max-10” (FIG. 3F), “E6-11” (FIG. 3G), “E6-13” (FIG. 3H), respectively.
In addition, Applicants performed sensitivity analysis to identify the most sensitive primer/probe set from among the candidate sets.
To validate the function of primer/probe sets, Applicants calculated the slope of delta Rn against cycle threshold for HPV-16 copy number detection from defined HPV copy number DNA derived from CaSki cell line.

HPV-16 = assay: qPCR sensitivity against HPV-HNSCC tumor samples diluted among 10 ng normal human DNA; conditions: for sensitivity under 100 cells / sensitivity under single cells / sensitivity under 10 cells: 32 HPV-HNSCC tumor samples; for sensitivity under single cells: 6.6 pg DNA; for sensitivity under 10 cells: 66 pg DNA; for Sensitivity, 1 cell / Sensitivity, 3 cells / Sensitivity, 10 cells / Sensitivity, 30 cells / Sensitivity, 100 cells: tumor DNA dilution, fraction of 32 samples
Description: Quantitative real-time polymerase chain reaction (qRT-PCR) was used to examine the threshold in each experiment. qRT-PCR was performed using Quant Studio 6 Flex Real-Time PCR System (Thermo Fisher Scientific). All samples were run in triplicates. HPV-16 viral amplicon copy number estimations were developed using the CaSki cell line. After amplification of the amplicon by PCR, DNA concentration was calculated by weight NanoDrop®, then converted to DNA copy number by calculation based on the molecular weight of the double stranded amplicon. […] In the other 32 HPV-HNSCC cohort, Applicants diluted the tumor sample to 990 pg, 198 pg, 99 pg, 39.6 pg, 7.9 pg, 3.2 pg, and 1.6 pg of amount tumor weight, (correspond to 150, 30, 15, 6, 1.2, 0.6, and 0.3 cells: assumption that 1 tumor cell have 6.6 pg DNA (=3*10^9 (human DNA genome bp)*2 (diploid)*1.67*10^(−24) g (weight/Dalton))) combined with 10 ng normal leukocyte human DNA and compare the threshold of each primer-probe sets.
In this regard, Applicants investigated the other 32 HPV-HNSCC tumor samples. From the assumption that 1 cell tumor DNA contain 6.6 pg DNA, Applicants made the dilution series by DNA derived from normal lymphocyte as described and decide the threshold for each primer-probe set.
Furthermore, to determine whether these designed primer/probe sets also have a high sensitivity in a separate cohort, Applicants performed PCR in a validation cohort of 32 additional primary tumor samples with validated presence of HPV-16. Applicants prepared serial of dilutions of tumor DNA in normal lymphocyte DNA from non-cancer individuals and determined the threshold for each primer/probe set and defined amplification thresholds expressed in number of tumor cells for each sample (Table 5).

B1: BR E1-4: HPV-16 E1 region primer/probe set, SEQ ID NO: 37-39 (nucleic acid)
DNA 1: ATGCACAATTGGCAGACACTA
DNA 2: ACAATCCTTTACAATTTTTGCCTGT
DNA 3: TAATGCAAGTGCCTTTCTAAAAAGT
modifications: chemistry not given here
With B1 the “reaction under 30 copies of HPV-16 genome” value (from here on “reaction under 30 copies”) (HPV-16 genome) was “consistently amplified”, the “reaction under 30 copies” value (HPV-16 genome; listed as Min-4) was “react consistently” and the “number of reactions against 10 HPV-16 copies” value (HPV-16 genome) was 2 reactions. The “number of reactions under 30 HPV-16 copies” value (HPV-16 genome) was 3 reactions, the “sensitivity under 100 cells” value (HPV-16) was 93.8% and the “sensitivity under single cells” value (HPV-16) was 21.9%. For the same molecule, the “sensitivity under 10 cells” value (HPV-16) was 78.1%, the “Threshold of tumor cell numbers for HPV-16 detection” value (“Threshold of tumor cell numbers” for short) (HPV-16; Sample # 1) was 150.0 tumor cells and the “Threshold of tumor cell numbers” value (HPV-16; Sample # 2) was 150.0 tumor cells. For the same molecule, the “Threshold of tumor cell numbers” value (HPV-16; Sample # 3) was 1.2 tumor cells, the “Threshold of tumor cell numbers” value (HPV-16; Sample # 4) was 6.0 tumor cells and the “Threshold of tumor cell numbers” value (HPV-16; Sample # 5) was 30.0 tumor cells. For the same molecule, the “Threshold of tumor cell numbers” value (HPV-16; Sample # 6) was 30.0 tumor cells, the “Threshold of tumor cell numbers” value (HPV-16; Sample # 7) was 30.0 tumor cells and the “Threshold of tumor cell numbers” value (HPV-16; Sample # 8) was 50.0 tumor cells. For the same molecule, the “Threshold of tumor cell numbers” value (HPV-16; Sample # 9) was 1.2 tumor cells, the “Threshold of tumor cell numbers” value (HPV-16; Sample # 10) was 1.2 tumor cells and the “Threshold of tumor cell numbers” value (HPV-16; Sample # 11) was 1.2 tumor cells. The “Threshold of tumor cell numbers” value (HPV-16; Sample # 12) was 3.0 tumor cells, the “Threshold of tumor cell numbers” value (HPV-16; Sample # 13) was 6.0 tumor cells and the “Threshold of tumor cell numbers” value (HPV-16; Sample # 14) was 6.0 tumor cells. For the same molecule, the “Threshold of tumor cell numbers” value (HPV-16; Sample # 15) was 6.0 tumor cells, the “Threshold of tumor cell numbers” value (HPV-16; Sample # 16) was 6.0 tumor cells and the “Threshold of tumor cell numbers” value (HPV-16; Sample # 17) was 6.0 tumor cells. The “Threshold of tumor cell numbers” value (HPV-16; Sample # 18) was 1.2 tumor cells, the “Threshold of tumor cell numbers” value (HPV-16; Sample # 19) was 0.3 tumor cells and the “Threshold of tumor cell numbers” value (HPV-16; Sample # 20) was 1.2 tumor cells. For the same molecule, the “Threshold of tumor cell numbers” value (HPV-16; Sample # 21) was 0.6 tumor cells, the “Threshold of tumor cell numbers” value (HPV-16; Sample # 22) was 0.3 tumor cells and the “Threshold of tumor cell numbers” value (HPV-16; Sample # 23) was 1.2 tumor cells. The “Threshold of tumor cell numbers” value (HPV-16; Sample # 24) was 0.6 tumor cells, the “Threshold of tumor cell numbers” value (HPV-16; Sample # 25) was 1.2 tumor cells and the “Threshold of tumor cell numbers” value (HPV-16; Sample # 26) was 0.6 tumor cells. The “Threshold of tumor cell numbers” value (HPV-16; Sample # 27) was 0.6 tumor cells, the “Threshold of tumor cell numbers” value (HPV-16; Sample # 28) was 1.0 tumor cells and the “Threshold of tumor cell numbers” value (HPV-16; Sample # 29) was 1.0 tumor cells. The “Threshold of tumor cell numbers” value (HPV-16; Sample # 30) was 30.0 tumor cells, the “Threshold of tumor cell numbers” value (HPV-16; Sample # 31) was 0.6 tumor cells and the “Threshold of tumor cell numbers” value (HPV-16; Sample # 32) was 9.0 tumor cells. For the same molecule, the “Sensitivity, 1 cell” value (HPV-16) was 0.219, the “Sensitivity, 3 cells” value (HPV-16) was 0.531* and the “Sensitivity, 10 cells” value (HPV-16) was 0.781*. For the same molecule, the “Sensitivity, 30 cells” value (HPV-16) was 0.875 and the “Sensitivity, 100 cells” value (HPV-16) was 0.938.

B2: BR E1-6: HPV-16 E1 region primer/probe set, SEQ ID NO: 43-45 (nucleic acid)
DNA 1: ATGCACAATTGGCAGACACTAA
DNA 2: AATCCTTTACAATTTTTGCCTGTGA
DNA 3: AGTAATGCAAGTGCCTTTCTAAAAAGTA
modifications: chemistry not given here
B2 was tested, and the “reaction under 30 copies” value (HPV-16 genome) was “consistently amplified”, the “reaction under 30 copies” value (HPV-16 genome; listed as Min-6) was “react consistently” and the “number of reactions against 10 HPV-16 copies” value (HPV-16 genome) was 2 reactions. The “number of reactions under 30 HPV-16 copies” value (HPV-16 genome) was 3 reactions, the “sensitivity under 100 cells” value (HPV-16) was 87.5% and the “sensitivity under single cells” value (HPV-16) was 15.6%. For the same molecule, the “sensitivity under 10 cells” value (HPV-16) was 62.5%, the “Threshold of tumor cell numbers” value (HPV-16; Sample # 1) was 150.0 tumor cells and the “Threshold of tumor cell numbers” value (HPV-16; Sample # 2) was 150.0 tumor cells. The “Threshold of tumor cell numbers” value (HPV-16; Sample # 3) was 30.0 tumor cells, the “Threshold of tumor cell numbers” value (HPV-16; Sample # 4) was 30.0 tumor cells and the “Threshold of tumor cell numbers” value (HPV-16; Sample # 5) was 30.0 tumor cells. For the same molecule, the “Threshold of tumor cell numbers” value (HPV-16; Sample # 6) was 50.0 tumor cells, the “Threshold of tumor cell numbers” value (HPV-16; Sample # 7) was 150.0 tumor cells and the “Threshold of tumor cell numbers” value (HPV-16; Sample # 8) was 15.0 tumor cells. The “Threshold of tumor cell numbers” value (HPV-16; Sample # 9) was 30.0 tumor cells, the “Threshold of tumor cell numbers” value (HPV-16; Sample # 10) was 6.0 tumor cells and the “Threshold of tumor cell numbers” value (HPV-16; Sample # 11) was 6.0 tumor cells. The “Threshold of tumor cell numbers” value (HPV-16; Sample # 12) was 30.0 tumor cells, the “Threshold of tumor cell numbers” value (HPV-16; Sample # 13) was 6.0 tumor cells and the “Threshold of tumor cell numbers” value (HPV-16; Sample # 14) was 6.0 tumor cells. For the same molecule, the “Threshold of tumor cell numbers” value (HPV-16; Sample # 15) was 6.0 tumor cells, the “Threshold of tumor cell numbers” value (HPV-16; Sample # 16) was 30.0 tumor cells and the “Threshold of tumor cell numbers” value (HPV-16; Sample # 17) was 6.0 tumor cells. The “Threshold of tumor cell numbers” value (HPV-16; Sample # 18) was 1.2 tumor cells, the “Threshold of tumor cell numbers” value (HPV-16; Sample # 19) was 1.2 tumor cells and the “Threshold of tumor cell numbers” value (HPV-16; Sample # 20) was 6.0 tumor cells. The “Threshold of tumor cell numbers” value (HPV-16; Sample # 21) was 1.2 tumor cells, the “Threshold of tumor cell numbers” value (HPV-16; Sample # 22) was 0.3 tumor cells and the “Threshold of tumor cell numbers” value (HPV-16; Sample # 23) was 1.2 tumor cells. The “Threshold of tumor cell numbers” value (HPV-16; Sample # 24) was 1.2 tumor cells, the “Threshold of tumor cell numbers” value (HPV-16; Sample # 25) was 1.2 tumor cells and the “Threshold of tumor cell numbers” value (HPV-16; Sample # 26) was 0.3 tumor cells. The “Threshold of tumor cell numbers” value (HPV-16; Sample # 27) was 0.6 tumor cells, the “Threshold of tumor cell numbers” value (HPV-16; Sample # 28) was 0.6 tumor cells and the “Threshold of tumor cell numbers” value (HPV-16; Sample # 29) was 3.0 tumor cells. The “Threshold of tumor cell numbers” value (HPV-16; Sample # 30) was 150.0 tumor cells, the “Threshold of tumor cell numbers” value (HPV-16; Sample # 31) was 0.6 tumor cells and the “Threshold of tumor cell numbers” value (HPV-16; Sample # 32) was 9.0 tumor cells. For the same molecule, the “Sensitivity, 1 cell” value (HPV-16) was 0.156, the “Sensitivity, 3 cells” value (HPV-16) was 0.344 and the “Sensitivity, 10 cells” value (HPV-16) was 0.625. For the same molecule, the “Sensitivity, 30 cells” value (HPV-16) was 0.844 and the “Sensitivity, 100 cells” value (HPV-16) was 0.875.
